From US20260201043A1 (INSTITUT NATIONAL DE LA RECHERCHE SCIENTIFIQUE, published 2026) come the findings set out here.

The target of test [1] is T1, recombinant human galectin-13 (human, UniProt Q9UHV8 1-139, biotinylated for the phage ELISA; labeled with FITC for the HepG2 cell binding assay).
T1 sequence (looked up): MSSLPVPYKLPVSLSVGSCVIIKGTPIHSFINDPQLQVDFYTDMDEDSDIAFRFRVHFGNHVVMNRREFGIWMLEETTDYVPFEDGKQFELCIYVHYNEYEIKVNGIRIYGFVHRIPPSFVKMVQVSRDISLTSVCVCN
In words: cell-based or functional assay.

In test [2] the target is T2, recombinant N-terminal domain of human GAL-9 (human, UniProt O00182 1-148).
T2 construct: also called GAL-9N; Gal-9N
In words: ELISA: sdAb immobilized at 1 µM, 5 µM GAL-9N. Here is the method: (§1) FIGS. 19A-B show the binding of recombinant N-terminal domain of human GAL-9 (GAL-9N, FIG. 19A) and recombinant C-terminal domain of human GAL-9 (GAL-9C, FIG. 19B) to GAL-9-specific sdAbs as measured by ELISA. Briefly, sdAbs were immobilized at 1 μM for 1 h at RT, followed by blocking with PBS containing 10% (v/v) BSA and 0.05% (v/v) Tween™ 20. 5 μM of recombinant GAL-9N or GAL-9C were incubated for 1 h at RT. […] The colorimetric assay was carried out with 3,3′,5,5′-tetramethylbenzidine per the manufacturer's recommendations. Data (mean values±SD) from three independent experiments is shown. Statistical differences were assessed using Tukey's multiple comparisons test. RT=room temperature.
For orientation: In an ELISA, binding on a coated surface is turned into a signal by an enzyme label.

The target in test [3] is T1, recombinant human galectin-13. The test is described as follows: ELISA: sdAb immobilized at 1 µM, 5 µM galectin. Here is the method: Briefly, Nbs were immobilized at 1 μM for 1 h at RT, followed by blocking with PBS containing 10% (v/v) BSA and 0.05% (v/v) Tween™ 20. 5 μM of galectin were incubated for 1 h at RT. […] The colorimetric assay was carried out with 3,3′,5,5′-tetramethylbenzidine per the manufacturer's recommendations. Data (mean values±SD) from one experiment is shown. Statistical differences were assessed using Dunnett's multiple comparisons test. RT=room temperature

Test [4] deals with T3, recombinant C-terminal domain of human GAL-9 (human, UniProt O00182 210-355).
T3 construct: also called GAL-9C; GAL-9C (210-355)
The test is described as follows: ELISA: sdAb immobilized at 1 µM, 5 µM GAL-9C. Here is the method:
as §1

Test [5] addresses T1, recombinant human galectin-13. The test is described as follows: non-adsorbed phage ELISA on biotinylated GAL-13.

T2 sequence (O00182 1-148 limits assumed): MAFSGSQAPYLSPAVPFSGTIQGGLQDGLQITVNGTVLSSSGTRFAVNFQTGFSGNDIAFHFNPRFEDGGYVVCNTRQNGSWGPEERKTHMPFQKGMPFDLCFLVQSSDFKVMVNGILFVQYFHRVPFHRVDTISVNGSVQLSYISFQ
T3 sequence (O00182 210-355 limits assumed): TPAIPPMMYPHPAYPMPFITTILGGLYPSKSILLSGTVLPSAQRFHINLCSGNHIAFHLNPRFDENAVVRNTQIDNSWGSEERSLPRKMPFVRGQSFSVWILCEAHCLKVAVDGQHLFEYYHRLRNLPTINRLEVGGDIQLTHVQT

B1: G13N4 (VHH, not shown: small tags and cut ends)
VHH: EVQLQASGGGFVQPGGSLRLSCAASGSSYAGSAMGWFRQAPGKEREFVSAISSDPDTKAYYADSVKGRFTISRDNSKNTVYLQMNSLRAEDTATYYCAISGQYPYARYWGHGTQVTVSS
Take B1: in test [1], the “inhibition of galectin-13-induced apoptosis of Jurkat T cells” value (from here on “inhibition”) was -31%.

B2: G9N3 (VHH)
VHH: EVQLQASGGGFVQPGGSLRLSCAASGDGSGWDIMGWFRQAPGKEREFVSAISRHDTTYSYYADSVKGRFTISRDNSKNTVYLQMNSLRAEDTATYYCATIPASWNKSYWGQGTQVTVSS
notes: Synthetic humanized sdAb; on M13 phage in the screening ELISA, purified with His and cMyc tags and immobilized in wells otherwise; also called GAL-9-specific sdAb G9N3; not shown: 6xHis and cMyc tags from vector pHEN2
Consider B2, for which the binding result in test [2], in test [3] and in test [4] was “binds” each time.

B3: G13N3 (VHH, not shown: small tags and cut ends)
VHH: EVQLQASGGGFVQPGGSLRLSCAASGRGSRWYGMGWFRQAPGKEREFVSAISAQHSTRAYYADSVKGRFTISRDNSKNTVYLQMNSLRAEDTATYYCAGYMSKMGERKWKYWGQGTQVTVSS
Regarding B3, the “inhibition” value in test [1] was -23.5%.

B4: G13N2 (VHH)
VHH: EVQLQASGGGFVQPGGSLRLSCAASGSTSRSSGMGWFRQAPGKEREFVSAISYRGSGARYYADSVKGRFTISRDNSKNTVYLQMNSLRAEDTATYYCAMWQRQIQPGTRPVWKYWGQGTQVTVSS
notes: Synthetic humanized sdAb; on M13 phage in the screening ELISA, purified with His and cMyc tags otherwise; also called GAL-13 sdAb G13N2; not shown: 6xHis and cMyc tags from vector pHEN2
Turning to B4, the binding result in test [5] is recorded as “binds”.

B5: G9N4 (VHH)
VHH: EVQLQASGGGFVQPGGSLRLSCAASGGTWRWTIMGWFRQAPGKEREFVSAISRTNSEYQYYADSVKGRFTISRDNSKNTVYLQMNSLRAEDTATYYCAEPTAVWADKGQEMQSYWGQGTQVTVSS
notes: Synthetic humanized sdAb; on M13 phage in the screening ELISA, purified with His and cMyc tags and immobilized in wells otherwise; also called GAL-9-specific sdAb G9N4; not shown: 6xHis and cMyc tags from vector pHEN2
Consider B5, for which the binding result in test [2] and in test [4] was “binds” in each case.

B6: G13N10 (VHH)
VHH: EVQLQASGGGFVQPGGSLRLSCAASGRTSNQTIGWFRQAPGKEREFVSAISARFDEYGYYADSVKGRFTISRDNSKNTVYLQMNSLRAEDTATYYCALGWPQKSTWRAYTAEYWGQGTQVTVSS
notes: Synthetic humanized sdAb; on M13 phage in the screening ELISA, purified with His and cMyc tags otherwise; also called Nb #10; GAL-13 sdAb G13N10; not shown: 6xHis and cMyc tags from vector pHEN2
With B6, the binding result in test [5] is reported as “binds”.

B7: G13N1 (VHH, not shown: small tags and cut ends)
VHH: EVQLQASGGGFVQPGGSLRLSCAASGFGSNRSTMGWFRQAPGKEREFVSAISSLSSDPPYYADSVKGRFTISRDNSKNTVYLQMNSLRAEDTATYYCAPAGMRGVMEYWGQGTQVTVSS
In the case of B7, in test [1], the “inhibition” value is -27%.

B8: G9N1 (VHH)
VHH: EVQLQASGGGFVQPGGSLRLSCAASGDTSGEYSMGWFRQAPGKEREFVSAISDQGGIEIYYADSVKGRFTISRDNSKNTVYLQMNSLRAEDTATYYCAHTFYDMPDGYRQYWGQGTQVTVSS
notes: Synthetic humanized sdAb; on M13 phage in the screening ELISA, purified with His and cMyc tags and immobilized in wells otherwise; also called GAL-9-specific sdAb G9N1; not shown: 6xHis and cMyc tags from vector pHEN2
For the molecule B8, the binding result in test [2] and in test [3] was “binds” each time.

B9: G13N6 (VHH, not shown: small tags and cut ends)
VHH: EVQLQASGGGFVQPGGSLRLSCAASGRTSSLTSMGWFRQAPGKEREFVSAISFSGSMFTYYADSVKGRFTISRDNSKNTVYLQMNSLRAEDTATYYCADKWMHKPANYWGQGTQVTVSS
Take B9: the “inhibition” value in test [1] is -27%.

B10: G13N9 (VHH, not shown: small tags and cut ends)
VHH: EVQLQASGGGFVQPGGSLRLSCAASGRGSALTTMGWFRQAPGKEREFVSAISGDTGLYVYYADSVKGRFTISRDNSKNTVYLQMNSLRAEDTATYYCAGKWLGGRQADTRYWGQGTQVTVSS
On to B10, for which the “inhibition” value in test [1] is -33%.

B11: G13N5 (VHH, not shown: small tags and cut ends)
VHH: EVQLQASGGGFVQPGGSLRLSCAASGYTSNEDSMGWFRQAPGKEREFVSAISRGPSFRTYYADSVKGRFTISRDNSKNTVYLQMNSLRAEDTATYYCAIRLGRLYRYGDLTPKSAYYWGQGTQVTVSS
B11: in test [1], the “inhibition” value is -44%.

B12: G13N8 (VHH)
VHH: EVQLQASGGGFVQPGGSLRLSCAASGTTWQETKMGWFRQAPGKEREFVSAISRGPNYYPYYADSVKGRFTISRDNSKNTVYLQMNSLRAEDTATYYCADEWMGSINARGHSGYYWGQGTQVTVSS
notes: Synthetic humanized sdAb; on M13 phage in the screening ELISA, purified with His and cMyc tags otherwise; also called GAL-13 sdAb G13N8; not shown: 6xHis and cMyc tags from vector pHEN2
In the case of B12, in test [5], the binding result is “binds”.
